Laboratory results from patent US20260263563A1, “Method of Treatment of a Thoracolumbar Deformity in a Human Subject with Achondroplasia” (Ascendis Pharma Growth Disorders A/S, priority 2023, published 2026).
Read-outs that look alike come from different tables or passages of the source.

Test system: prepubertal children with achondroplasia
Experimental: The study enrolled a minimum of 60 male and female prepubertal children with ACH aged 2 to 10 years old. The clinical trial is listed on www.clinicaltrials.gov under the ClinicalTrials.gov Identifier: NCT04085523. The objectives of the study were as follow:
This trial is a multicenter trial consisting of two treatment periods.
Participants should rest for at least 5 minutes before vital sign measurement and vital signs should be taken prior to any blood draws. The following vital signs should be measured: • Heart Rate (measured in beats per minute) • Blood Pressure (seated BP will be taken measured in mm Hg) • Temperature [measured in degrees Celsius (° C.) or Fahrenheit (° F.)]
All vital signs above must be measured at all visits. […] Orthostatic hypotension is defined as decrease in SBP of ≥20 mmHg (Stewart et al., Pediatrics, 141, 1-13, 2018). Accompanying tachycardia is defined as change of heart rate increment of ≥40 bpm and absolute orthostatic HR≥130 bpm (for ages 13 years and younger) (Singer et al., Journal of Pediatrics, 160, 222-226, 2012). Additionally, at Visit 1 and Visit 7 (in the Open-Label Extension Period), all vital signs must be monitored at 1 hour and 2 hours post injection of the study drug.

[1] = 57 patients followed for up to 65 weeks
[2] = more than 2,000 injections administered

Navepegritide [Compound (1)]
Serious TEAE (6 μg/kg/week (n = 10)): 1 (10.0)
Subject with Treatment-Emergent Adverse Events (TEAE) (6 μg/kg/week (n = 10)): 9 (90.0)
Subjects with at Least One Treatment-Related TEAE (6 μg/kg/week (n = 10)): 3 (30.0)
TEAE Grade 1 (6 μg/kg/week (n = 10)): 9 (90.0)
TEAE Grade 2 (6 μg/kg/week (n = 10)): 3 (30.0)
Treatment-Related TEAE (6 μg/kg/week (n = 10)): 3 (30.0)
Treatment-related: Abdominal pain upper (6 μg/kg/week (n = 10)): 0
Treatment-related: Dizziness (6 μg/kg/week (n = 10)): 0
Treatment-related: Injection site reaction (6 μg/kg/week (n = 10)): 2 (20.0)
Treatment-related: Overdose (6 μg/kg/week (n = 10)): 0
Treatment-related: Sleep terror (6 μg/kg/week (n = 10)): 0
Treatment-related: Urticaria (6 μg/kg/week (n = 10)): 1 (10.0)
Achondroplasia-Related TEAE (6 μg/kg/week (n = 10), placebo 9 (60.0)): 3 (30.0)
Achondroplasia-Related TEAE (20 μg/kg/week (n = 11)): 4 (36.4)
Serious TEAE (20 μg/kg/week (n = 11)): 0
Subject with Treatment-Emergent Adverse Events (TEAE) (20 μg/kg/week (n = 11)): 11 (100.0)
Subjects with at Least One Treatment-Related TEAE (20 μg/kg/week (n = 11)): 2 (18.2)
TEAE Grade 1 (20 μg/kg/week (n = 11)): 11 (100.0)
TEAE Grade 2 (20 μg/kg/week (n = 11)): 3 (27.3)
Treatment-Related TEAE (20 μg/kg/week (n = 11)): 2 (18.2)
Treatment-related: Abdominal pain upper (20 μg/kg/week (n = 11)): 1 (9.1)
Treatment-related: Dizziness (20 μg/kg/week (n = 11)): 0
Treatment-related: Injection site reaction (20 μg/kg/week (n = 11)): 1 (9.1)
Treatment-related: Overdose (20 μg/kg/week (n = 11)): 0
Treatment-related: Sleep terror (20 μg/kg/week (n = 11)): 0
Treatment-related: Urticaria (20 μg/kg/week (n = 11)): 0
Achondroplasia-Related TEAE (50 μg/kg/week (n = 10)): 5 (50.0)
Serious TEAE (50 μg/kg/week (n = 10)): 1 (10.0)
Subject with Treatment-Emergent Adverse Events (TEAE) (50 μg/kg/week (n = 10)): 10 (100.0)
Subjects with at Least One Treatment-Related TEAE (50 μg/kg/week (n = 10)): 3 (30.0)
TEAE Grade 1 (50 μg/kg/week (n = 10)): 10 (100.0)
TEAE Grade 2 (50 μg/kg/week (n = 10)): 3 (30.0)
Treatment-Related TEAE (50 μg/kg/week (n = 10)): 3 (30.0)
Treatment-related: Abdominal pain upper (50 μg/kg/week (n = 10)): 0
Treatment-related: Dizziness (50 μg/kg/week (n = 10)): 0
Treatment-related: Injection site reaction (50 μg/kg/week (n = 10)): 3 (30.0)
Treatment-related: Overdose (50 μg/kg/week (n = 10)): 0
Treatment-related: Sleep terror (50 μg/kg/week (n = 10)): 0
Treatment-related: Urticaria (50 μg/kg/week (n = 10)): 0
Achondroplasia-Related TEAE (100 μg/kg/week (n = 11)): 1 (9.1)
Serious TEAE (100 μg/kg/week (n = 11)): 0
Subject with Treatment-Emergent Adverse Events (TEAE) (100 μg/kg/week (n = 11)): 10 (90.9)
Subjects with at Least One Treatment-Related TEAE (100 μg/kg/week (n = 11)): 2 (18.2)
TEAE Grade 1 (100 μg/kg/week (n = 11)): 9 (81.8)
TEAE Grade 2 (100 μg/kg/week (n = 11)): 1 (9.1)
Treatment-Related TEAE (100 μg/kg/week (n = 11)): 2 (18.2)
Treatment-related: Abdominal pain upper (100 μg/kg/week (n = 11)): 0
Treatment-related: Dizziness (100 μg/kg/week (n = 11)): 0
Treatment-related: Injection site reaction (100 μg/kg/week (n = 11)): 2 (18.2)
Treatment-related: Overdose (100 μg/kg/week (n = 11)): 0
Treatment-related: Sleep terror (100 μg/kg/week (n = 11)): 0
Treatment-related: Urticaria (100 μg/kg/week (n = 11)): 0
reporting of achondroplasia related treatment emergent adverse events (100 μg/kg/week dose group, 60% in the placebo group): 9.1%
AEs on orthostatism [1]: no AEs reported on orthostatism
serious adverse events related to the trial drug [1]: no serious adverse events related to the trial drug
withdrawals or discontinuations from the trial [1]: no withdrawals or discontinuations
total AEs related to trial drug or procedures (57 patients, more than 1900 injections): 13
severity of ISRs (all ISRs): mild
injection site reactions (among more than 1900 injections): 8
number of injection site reactions (ISRs) [2]: 11
number of patients with ISRs [2]: 8
tolerability of injections (weekly s.c. injections): well tolerated with a low frequency of injection site reactions
